Patent US20070224188A1

Biological target: biotin-labeled soluble FcRn
Experiment: FcRn ELISA pH 6.0

Row | Substance | FcRn pH6.0 (% of wild type) | FcRn6.0 (% of wild type)
1 | anti-CD20 IgG1 A339M (antibody) | 111 | –
2 | anti-CD20 IgG1 S426L (antibody) | 117 | –
3 | anti-CD20 IgG1 L314Y (antibody) | 64 | –
4 | anti-CD20 IgG1 Q311A (antibody) | 139 | –
5 | anti-CD20 IgG1 N434I (antibody) | 6 | –
6 | anti-CD20 IgG1 256P434H (antibody) | – | 342
7 | anti-CD20 IgG1 G237E (antibody) | 93 | –
8 | anti-CD20 IgG1 V279H (antibody) | 173 | –
9 | anti-CD20 IgG1 279D307E (antibody) | – | 522
10 | anti-CD20 IgG1 T256I (antibody) | 72 | –
11 | anti-CD20 IgG1 E380T (antibody) | 172 | –
12 | anti-CD20 IgG1 T256E (antibody) | 339 | –
13 | anti-CD20 IgG1 S440T (antibody) | 71 | –
14 | anti-CD20 IgG1 D376G (antibody) | 135 | –
15 | anti-CD20 IgG1 D249Y (antibody) | 41 | –
16 | anti-CD20 IgG1 Y373N (antibody) | 61 | –
17 | anti-CD20 IgG1 V427N (antibody) | 192 | –

Row | Substance | FcRn pH6.0 (% of wild type) | FcRn6.0 (% of wild type)
18 | anti-CD20 IgG1 H268D (antibody) | 68 | –
19 | anti-CD20 IgG1 N315R (antibody) | 71 | –
20 | anti-CD20 IgG1 T256G (antibody) | 162 | –
21 | anti-CD20 IgG1 G341V (antibody) | 69 | –
22 | anti-CD20 IgG1 Q311G (antibody) | 58 | –
23 | anti-CD20 IgG1 S375R (antibody) | 595 | –
24 | anti-CD20 IgG1 256P440Y (antibody) | – | 122
25 | anti-CD20 IgG1 E382T (antibody) | 172 | –
26 | anti-CD20 IgG1 E318N (antibody) | 216 | –
27 | anti-CD20 IgG1 D280T (antibody) | 60 | –
28 | anti-CD20 IgG1 I332F (antibody) | 108 | –
29 | anti-CD20 IgG1 258D311I (antibody) | – | 522
30 | anti-CD20 IgG1 A339I (antibody) | 80 | –
31 | anti-CD20 IgG1 E430F (antibody) | 218 | –
32 | anti-CD20 IgG1 V379S (antibody) | 86 | –
33 | anti-CD20 IgG1 L251H (antibody) | 46 | –

Other lines, results leading:

Row | FcRn pH6.0 (% of wild type) | FcRn6.0 (% of wild type) | Substance
34 | 74 | – | anti-CD20 IgG1 Y373D (antibody)
35 | – | 78 | anti-CD20 IgG1 314Y440Y (antibody)
36 | 120 | – | anti-CD20 IgG1 A339F (antibody)
37 | 78 | – | anti-CD20 IgG1 T256L (antibody)
38 | – | 66 | anti-CD20 IgG1 251F376I (antibody)
39 | 94 | – | anti-CD20 IgG1 I332G (antibody)
40 | 117 | – | anti-CD20 IgG1 E283W (antibody)
41 | 26 | – | anti-CD20 IgG1 T256H (antibody)
42 | 85 | – | anti-CD20 IgG1 V379Q (antibody)
43 | 110 | – | anti-CD20 IgG1 P343G (antibody)
44 | 114 | – | anti-CD20 IgG1 P343I (antibody)
45 | 222 | – | anti-CD20 IgG1 E382F (antibody)
46 | 110 | – | anti-CD20 IgG1 S440H (antibody)
47 | – | 94 | anti-CD20 IgG1 330K332E (antibody)
48 | 11 | – | anti-CD20 IgG1 E430W (antibody)
49 | 126 | – | anti-CD20 IgG1 E430Y (antibody)
50 | 126 | – | anti-CD20 IgG1 E283A (antibody)
